The supplement of paper PMC12042874
± gives the uncertainty stated by the source.

Assay: amyloid nucleation score (Sup35N fusion, yeast selection) (log enrichment); library NNK3; higher = more nucleation; inactive = no reads after selection
Summary of the method: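 Psi-negative yeast expressed Sup35N fused to peptides of 20 random codons. They were induced 24 hours with 100 μM copper sulfate, grown 7 days at 30°C without adenine and uracil, and their plasmid inserts from input and output were Illumina-sequenced. The nucleation score is the DiMSum log enrichment of output over input reads, centred on the mode score of non-aggregating sequences. Sequences with under 100 input reads were excluded.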

Row | Substance | amyloid nucleation score
1 | IPTSLCGGAQLGRTRVLFLW | inactive
2 | LTVLDQSCSIYYCTSLHKS | 1.92 ± 0.087
3 | IIMSQMVYIVRDIHFVCWVI | inactive
4 | RFLLYPAPWRVFAIPYSEHL | inactive
5 | PSMSADGADLSGCQLIMVLS | inactive
6 | NMALLEYDSMSFICRYRNRP | inactive
7 | MKSKKPNSLDENYGSMRHF | inactive
8 | SDLYTIGVVPTLTFINAPCI | inactive
9 | CWIAMCGVVFNDLRMS | 2.81 ± 0.071
10 | RLNRVGNFIAGHLIGA | inactive
11 | MTSFIFDVFCSCSCLYQRPL | inactive
12 | YRVWTVYRVYILAGTKNIRS | inactive
13 | NGWRCLTVWDLSLYHWGYFL | inactive
14 | TPPVWTSPSSRLASCFKGLW | 1.31 ± 0.15
15 | RTGEFMRGLMVGDSVKWVF | inactive
16 | TVCLVAITKAPRRCNSQHWD | -0.917 ± 1.9
17 | EVVKLVR | inactive
18 | AWMVFCPCKMCMCRCYL | 1.41 ± 0.073
19 | IVGDRSLRSDEFSCC | inactive
20 | NQCPIRYLWL | 1.43 ± 0.11
21 | MYNSTLSWRL | inactive
22 | ICSSFDGQ | 0.458 ± 0.2
23 | RLATREDHAHLLDHACLVG | inactive

Row | Substance | amyloid nucleation score
24 | SMNFLICMIWSIVS | 1.02 ± 0.21
25 | IRTQYQEREASILYM | inactive
26 | GPLFRLRMFL | inactive
27 | GSRVLKAWGSLSLILTSYDG | inactive
28 | GLIVCVVASSYLMSGFGVKG | 0.03 ± 0.22
29 | YCDSVWNQNSTYHISL | inactive
30 | YRRKVELIRSLRW | inactive
31 | CYIYLSMQYGEHANDIICLW | inactive
32 | FPMDL | inactive
33 | GLFRRVRGIRT | inactive
34 | DDGSKCLLSSMMFVNLVTYC | inactive
35 | HNCASCSVRVHDSQSEKIAT | inactive
36 | TIVNL | inactive
37 | LPVVFLCRYDSI | inactive
38 | HLLELELVFSILRRLMYWPM | inactive
39 | YDYYFFNSFNISDIMR | inactive
40 | SRMTIVKSWKRMLGRLLMRL | inactive
41 | AFYCVSGIDYVS | inactive
42 | GCIIGCQLDKYGPAMPSARE | 0.632 ± 0.3
43 | WMPDPRVCQKMFVMCKHSP | inactive
44 | ANRKSRVKSEEWAEVNGCWG | inactive
45 | IGKFPDRCTFVQTKYFYVRS | 1.48 ± 0.075
46 | KMDLFVRIVSCLVNGCQTTG | inactive

Row | Substance | amyloid nucleation score
47 | SVMLDNTVVFTIRSGHCSES | 1.13 ± 0.1
48 | CEPMRYNCFCGFCIYDVRV | 2.36 ± 0.06
49 | RCFIDLCFLDIIISFRYY | inactive
50 | KIIRMF | inactive
51 | RLPPDSQMPSFYCCVDL | -0.144 ± 1.1
52 | EGSNI | 1.05 ± 0.17
53 | MSIMVASRLALARNVPLQKV | inactive
54 | PCILPKRTRIIVR | inactive
55 | DFLLATDQVGYKDLDLGTKV | inactive
56 | RVVAFHIANDLLLSLKKS | 1.39 ± 0.093
57 | MSMLYSGWAYELTLHYMRPA | inactive
58 | IVIRTSSDTNVRAAVQLRMN | inactive
59 | FSSKDRLGSHSRYYFYCATL | inactive
60 | LLFVVQWWFNRFFE | inactive
61 | YISNMLTLSPAKVSHKSWVI | 0.186 ± 0.29
62 | NSGYVYGIQCNVWVLAFMGF | 2.7 ± 0.068
63 | MPEKERAKSSPYLSEPRPHD | inactive
64 | LARVFASTGSSCSRSMNAMN | inactive
65 | ALSNYVFLEVTLQTWVVIEV | inactive
66 | PSFLNSMGS | inactive
67 | RRYSRVKVRRLFMRNNLMLN | 0.283 ± 0.15
68 | VCWMSVRDNNNGHFLIYSSD | inactive
69 | VSVLCMYFVVGPKMVRVSYG | inactive

Row | Substance | amyloid nucleation score
70 | LMLMVCVN | -0.601 ± 0.74
71 | LRYWPVCLVQIAFDFTVTGV | 1.97 ± 0.062
72 | HSVIVVCVFSYELFEFHSAV | inactive
73 | SMVGVFQKVFKTITTTYADV | inactive
74 | PLCATFKDTNRNNTVYRSLF | inactive
75 | GNYSREVRKNVYPETGVRQM | inactive
76 | YGEAAYRDRS | inactive
77 | FTKLYELSDMHISYTRS | inactive
78 | SKVRMVGVSKKCGLTVISVQ | inactive
79 | QSASFRNGFKLLLMTS | inactive
80 | LMNEY | inactive
81 | CGTCLRMVKVTRSDV | inactive
82 | FLMVGKISKMFKQYNLLFH | inactive
83 | YVRSYLILS | inactive
84 | QGGGNIDSSVVTDSSDVVYS | inactive
85 | CMMPLNATRYVYLPNAAHSL | inactive
86 | GSLCLSGKKIVFLHMNEAMG | inactive
87 | CGVCFYHIAWGSVHDTS | 0.93 ± 0.16
88 | FIPGMQA | inactive
89 | QYFSWKIRSGNLVYAF | inactive
90 | WWRKPLTFNDRIWRLRKHRS | inactive
91 | LPIKMGMLLSICDLLG | inactive
92 | GSVVTQGCGNLTLEAA | inactive

Row | Substance | amyloid nucleation score
93 | MFWCDNSGIMGADKGVALSW | inactive
94 | FMRDIKLTGGCGVNCAHLHA | inactive
95 | PVVRQRNALILCLSHMSCLE | 2.15 ± 0.063
96 | RVGVACKCFIQCLYFVFISI | inactive
97 | SRQNIFLLRLKTMTGQSVNI | inactive
98 | IDFRFFQPQAVCGNLSCYRE | 0.227 ± 0.23
99 | VAPLANHKASRDSYAYVSGS | inactive
100 | YPRTSFRFKGCDKEVVSDLL | inactive
101 | IRRLQINRAKHAILLLHYNW | inactive
102 | FFRNDCGHVFSYVAGSES | inactive
103 | PTNDAYVVVMD | inactive
104 | HCQSRRWTKFLYMGWLPSSS | 1.55 ± 0.1
105 | RFSMNASYFYYVIMFSDCYS | inactive
106 | RNSLFLLPSTCSVYIWCFS | 2.8 ± 0.081
107 | SMGLR | inactive
108 | NGFLNSINGTVMVQGYSTAF | inactive
109 | WSSSS | inactive
110 | GTRIFSRDVISSGFQGSICL | inactive
111 | YLYMG | inactive
112 | VTEYKFKVFLPMRKRSVIMV | inactive
113 | NFIALSLFKLVCSAEICWLN | 0.617 ± 0.39
114 | REGCHPFELSDPDGDHLVRF | inactive
115 | IVGLSHDAINTYLWVVVNAP | inactive

Row | Substance | amyloid nucleation score
116 | LTTPVTR | -0.169 ± 0.63
117 | SSSAFCGVAIRALIAGGKGY | inactive
118 | HLELDFNFSVLHTYCYFLAP | inactive
119 | AMILVRVYGVKRVWAYLLVW | inactive
120 | ATYAGSVITGLCEDTLYRNC | inactive
121 | HQISFSM | inactive
122 | SVRLSIVAGWFCKIWYSFLL | inactive
123 | IYRLFSARDDIVKDWRR | inactive
124 | TVLGM | 0.699 ± 0.17
125 | VYPSTSTLNYVMLQLTPVNS | inactive
126 | TDFIIRKSYQLLEFYFY | inactive
127 | SYCHRRLLSRVSLLVASSVK | inactive
128 | PCLSDPSYIELNKLASVFTG | inactive
129 | SAESKISIVWMEVRINNIFR | 1.67 ± 0.065
130 | GDSCCDRLYLFFGVWCVRAV | inactive
131 | FLSYLSSIPAPYLNGSAGTT | inactive
132 | LELLRTERKRMKCLKPVLRV | inactive
133 | RRSSARGIRYMYSLNCNGEL | inactive
134 | PRWLPVDGYEDSGVVEDKES | inactive
135 | LWLFSGCFGYYVILATLYFL | inactive
136 | AIIVCDC | inactive
137 | PRIWLVAFQTKTCYPSGGWL | -1.47 ± 1.9
138 | LHNCPVDGWAAVSRSVVGRE | inactive

Row | Substance | amyloid nucleation score
139 | IMEEFVTIFDYLQMAMFTRR | inactive
140 | HVLKDARCDS | 0.181 ± 0.36
141 | LRWYPDSCYVSV | inactive
142 | CMFCLPMGNSIRGLGNRNSV | 1.87 ± 0.074
143 | AKVRLDGSIGEVHFMELVSY | inactive
144 | FNQFHFKCSFNQCCYLNQAA | inactive
145 | PKQSIDCCHNWGDGNCFIVV | inactive
146 | RSTVYWFWRSSELLALRLHR | inactive
147 | KRLLVKVLLDVIGAYRDSSC | inactive
148 | AVMLREITNIRTKRSRNAMM | inactive
149 | IGYGGSIPRHSTCDVSLQRW | inactive
150 | VYGYELRCDLKGMLLS | inactive
151 | LQFVMLRTWVLRSRGTQAVT | 0.592 ± 0.21
152 | PPLPRFSLSFGRWLFLICHE | inactive
153 | ATELYLGVICNKMRW | inactive
154 | VRKPECSVVWVNQCWVQPPY | 2.15 ± 0.062
155 | LEGALRQDSCHKVPKLGQPV | inactive
156 | FVLFGGWLPRVQRLSLGTGR | inactive
157 | VRYRVIHMDTFVS | 0.933 ± 0.16
